# In article PMC9896810, “Crk proteins activate the Rap1 guanine nucleotide exchange factor C3G by segregated adaptor-dependent and -independent mechanisms” (Cell Communication and Signaling : CCS, 2023):
# No end group written: not given here. fluorescein = N-terminal fluorescein probe
# T1: C3G (full-length, residues 4-1077) (human, UniProt Q13905-1 4-1077)
# T1 construct: also called C3G WT; RapGEF1; source: E. coli BL21 (DE3), purified (IMAC, TEV digestion, reversed IMAC, SEC); not shown: His, N-terminal, cleaved; Halo, N-terminal, cleaved
# T1 sequence (looked up): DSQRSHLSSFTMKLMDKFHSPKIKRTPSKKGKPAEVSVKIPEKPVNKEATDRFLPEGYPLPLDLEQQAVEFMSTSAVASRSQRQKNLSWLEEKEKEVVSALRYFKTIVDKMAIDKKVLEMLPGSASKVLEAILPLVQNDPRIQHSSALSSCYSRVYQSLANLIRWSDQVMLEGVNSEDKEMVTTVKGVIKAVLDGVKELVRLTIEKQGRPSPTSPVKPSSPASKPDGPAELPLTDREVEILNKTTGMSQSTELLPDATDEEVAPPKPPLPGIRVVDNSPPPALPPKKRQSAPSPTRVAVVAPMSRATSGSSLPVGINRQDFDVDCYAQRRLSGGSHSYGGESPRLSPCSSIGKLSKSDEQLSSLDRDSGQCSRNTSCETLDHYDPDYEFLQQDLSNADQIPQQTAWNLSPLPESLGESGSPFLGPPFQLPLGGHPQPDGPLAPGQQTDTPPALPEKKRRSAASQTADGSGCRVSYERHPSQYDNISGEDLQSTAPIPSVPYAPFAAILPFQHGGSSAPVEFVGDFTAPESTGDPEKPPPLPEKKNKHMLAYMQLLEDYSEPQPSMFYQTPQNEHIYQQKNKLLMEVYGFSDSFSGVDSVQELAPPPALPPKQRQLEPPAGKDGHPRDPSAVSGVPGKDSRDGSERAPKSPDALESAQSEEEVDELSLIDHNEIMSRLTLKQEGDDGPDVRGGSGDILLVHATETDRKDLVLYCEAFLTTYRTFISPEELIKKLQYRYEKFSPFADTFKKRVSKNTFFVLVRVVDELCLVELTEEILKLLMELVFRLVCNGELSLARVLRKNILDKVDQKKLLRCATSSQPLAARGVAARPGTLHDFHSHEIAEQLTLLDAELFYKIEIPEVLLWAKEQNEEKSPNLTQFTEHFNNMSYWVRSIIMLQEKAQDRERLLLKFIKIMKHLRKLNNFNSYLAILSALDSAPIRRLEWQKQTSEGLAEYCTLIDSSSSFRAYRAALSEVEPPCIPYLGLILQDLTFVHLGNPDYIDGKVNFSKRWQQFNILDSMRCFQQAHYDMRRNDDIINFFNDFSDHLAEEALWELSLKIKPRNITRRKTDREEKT
# T2: Src-phosphorylated C3G (pC3G), wild type (human, UniProt Q13905-1 4-1077, phosphotyrosines (phosphorylated in vitro by Src; sites not stated))
# T2 sequence (looked up): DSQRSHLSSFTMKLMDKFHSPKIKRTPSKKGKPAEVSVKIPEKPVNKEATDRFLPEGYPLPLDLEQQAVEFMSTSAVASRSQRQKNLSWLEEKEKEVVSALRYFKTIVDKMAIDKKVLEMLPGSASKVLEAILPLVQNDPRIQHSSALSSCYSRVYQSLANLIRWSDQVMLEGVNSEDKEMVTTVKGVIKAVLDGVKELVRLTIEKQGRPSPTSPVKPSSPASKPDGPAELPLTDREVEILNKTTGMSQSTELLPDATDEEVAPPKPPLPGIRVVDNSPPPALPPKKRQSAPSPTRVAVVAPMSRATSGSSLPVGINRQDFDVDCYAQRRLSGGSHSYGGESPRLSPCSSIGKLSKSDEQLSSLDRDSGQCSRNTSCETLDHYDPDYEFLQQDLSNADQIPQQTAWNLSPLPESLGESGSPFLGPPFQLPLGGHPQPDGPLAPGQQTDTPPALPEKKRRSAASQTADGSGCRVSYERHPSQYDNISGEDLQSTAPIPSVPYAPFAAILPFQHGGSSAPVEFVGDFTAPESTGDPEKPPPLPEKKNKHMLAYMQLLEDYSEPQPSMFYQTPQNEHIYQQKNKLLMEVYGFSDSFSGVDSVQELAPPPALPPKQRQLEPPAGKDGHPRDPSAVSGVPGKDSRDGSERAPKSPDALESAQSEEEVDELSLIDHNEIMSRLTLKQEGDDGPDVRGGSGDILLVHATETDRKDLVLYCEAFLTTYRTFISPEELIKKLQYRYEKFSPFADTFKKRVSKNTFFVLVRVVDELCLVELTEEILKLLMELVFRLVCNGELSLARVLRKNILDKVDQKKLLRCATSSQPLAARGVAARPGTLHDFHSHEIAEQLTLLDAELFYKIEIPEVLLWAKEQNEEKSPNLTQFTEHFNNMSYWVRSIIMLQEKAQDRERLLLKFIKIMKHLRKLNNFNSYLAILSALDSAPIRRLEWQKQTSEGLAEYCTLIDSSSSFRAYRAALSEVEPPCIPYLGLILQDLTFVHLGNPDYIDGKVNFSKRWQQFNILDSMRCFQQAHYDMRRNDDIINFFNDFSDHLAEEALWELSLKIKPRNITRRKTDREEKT
# T3: C3G full-length wild type (human, isoform a, residues 4-1077) (human, UniProt Q13905-1 4-1077)
# T3 sequence (looked up): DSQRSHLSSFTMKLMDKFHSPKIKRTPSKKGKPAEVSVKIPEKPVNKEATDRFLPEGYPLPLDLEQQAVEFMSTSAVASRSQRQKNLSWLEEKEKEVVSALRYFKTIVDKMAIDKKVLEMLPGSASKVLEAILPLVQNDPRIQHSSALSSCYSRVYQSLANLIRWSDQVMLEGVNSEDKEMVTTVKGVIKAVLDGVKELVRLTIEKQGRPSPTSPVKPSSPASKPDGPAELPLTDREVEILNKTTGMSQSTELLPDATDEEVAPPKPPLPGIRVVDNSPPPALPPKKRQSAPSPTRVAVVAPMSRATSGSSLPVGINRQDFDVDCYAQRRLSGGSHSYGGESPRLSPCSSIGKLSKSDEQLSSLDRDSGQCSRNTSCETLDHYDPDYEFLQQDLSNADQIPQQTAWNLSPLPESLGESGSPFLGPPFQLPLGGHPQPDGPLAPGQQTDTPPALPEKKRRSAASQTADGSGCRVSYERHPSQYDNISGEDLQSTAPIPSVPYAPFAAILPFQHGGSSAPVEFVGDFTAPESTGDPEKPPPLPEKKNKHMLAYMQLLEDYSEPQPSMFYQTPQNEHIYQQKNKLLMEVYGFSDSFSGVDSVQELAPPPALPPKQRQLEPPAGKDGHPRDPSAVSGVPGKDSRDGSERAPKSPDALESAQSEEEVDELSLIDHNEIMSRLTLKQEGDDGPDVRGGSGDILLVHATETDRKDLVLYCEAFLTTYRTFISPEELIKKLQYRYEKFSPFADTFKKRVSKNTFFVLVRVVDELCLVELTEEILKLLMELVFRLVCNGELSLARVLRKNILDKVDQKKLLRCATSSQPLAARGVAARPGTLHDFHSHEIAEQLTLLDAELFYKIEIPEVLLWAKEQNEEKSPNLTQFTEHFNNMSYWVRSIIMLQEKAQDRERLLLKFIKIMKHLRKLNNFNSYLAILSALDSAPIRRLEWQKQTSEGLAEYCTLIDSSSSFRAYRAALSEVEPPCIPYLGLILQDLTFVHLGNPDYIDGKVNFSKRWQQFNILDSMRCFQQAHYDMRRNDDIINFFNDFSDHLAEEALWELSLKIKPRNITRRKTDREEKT
# B1: CrkL-SH3N-SH3C (domain or fragment, human, UniProt P46109 125-303, looked up)
# chain: LEYVRTLYDFPGNDAEDLPFKKGEILVIIEKPEEQWWSARNKDGRVGMIPVPYVEKLVRSSPHGKHGNRNSNSYGIPEPAHAYAQPQTTTPLPAVSGSPGAAITPLPSTQNGPVFAKAIQKRVPCAYDKTALALEVGDIVKVTRMNINGQWEGEVNGRKGLFPFTHVKIFDPQNPDENE
# notes: human CrkL, SH3N-SH3C, residues 125-303, in pETEV15b; source: E. coli BL21 (DE3), purified (IMAC, TEV digestion, SEC); not shown: His, N-terminal, cleaved
# B2: CrkL-SH3N-SH3C (residues 125-303) (domain or fragment, human, UniProt P46109 125-303, looked up)
# chain: LEYVRTLYDFPGNDAEDLPFKKGEILVIIEKPEEQWWSARNKDGRVGMIPVPYVEKLVRSSPHGKHGNRNSNSYGIPEPAHAYAQPQTTTPLPAVSGSPGAAITPLPSTQNGPVFAKAIQKRVPCAYDKTALALEVGDIVKVTRMNINGQWEGEVNGRKGLFPFTHVKIFDPQNPDENE
# B3: CrkII (full-length) (natural protein, human, UniProt P46108-1 1-304, looked up)
# chain: MAGNFDSEERSSWYWGRLSRQEAVALLQGQRHGVFLVRDSSTSPGDYVLSVSENSRVSHYIINSSGPRPPVPPSPAQPPPGVSPSRLRIGDQEFDSLPALLEFYKIHYLDTTTLIEPVSRSRQGSGVILRQEEAEYVRALFDFNGNDEEDLPFKKGDILRIRDKPEEQWWNAEDSEGKRGMIPVPYVEKYRPASASVSALIGGNQEGSHPQPLGGPEPGPYAQPSVNTPLPNLQNGPIYARVIQKRVPNAYDKTALALEVGELVKVTKINVSGQWEGECNGKRGHFPFTHVRLLDQQNPDEDFS
# notes: human CrkII, residues 1-304, in pETEV15b; source: E. coli BL21 (DE3), purified (IMAC, TEV digestion, SEC); not shown: His, N-terminal, cleaved
# B4: CrkII (human) (natural protein, UniProt P46108-1 1-304, looked up)
# chain: MAGNFDSEERSSWYWGRLSRQEAVALLQGQRHGVFLVRDSSTSPGDYVLSVSENSRVSHYIINSSGPRPPVPPSPAQPPPGVSPSRLRIGDQEFDSLPALLEFYKIHYLDTTTLIEPVSRSRQGSGVILRQEEAEYVRALFDFNGNDEEDLPFKKGDILRIRDKPEEQWWNAEDSEGKRGMIPVPYVEKYRPASASVSALIGGNQEGSHPQPLGGPEPGPYAQPSVNTPLPNLQNGPIYARVIQKRVPNAYDKTALALEVGELVKVTKINVSGQWEGECNGKRGHFPFTHVRLLDQQNPDEDFS
# B5: P1 (Fluo-280-293) (peptide)
# peptide: fluorescein-NGPPPALPPKKRQS
# notes: P1 Pro-rich motif of human C3G, residues 280-293; also called P1 peptide of C3G; source: synthetic peptide (custom synthesized, Thermo Scientific)
# Experiments:
# [1] = molecular target: T1, C3G (full-length, residues 4-1077); assay: ITC; C3G or pC3G in the cell titrated with the Crk protein, 25 °C, 300 mM NaCl, pH 7.5; global fit of three titrations with SEDPHAT, three symmetric binding sites, microscopic kd; conditions: both partners purified
# [2] = molecular target: T2, Src-phosphorylated C3G (pC3G), wild type; assay: cell-based or functional assay
# [3] = molecular target: T3, C3G full-length wild type (human, …); assay: cell-based or functional assay
# [4] = molecular target: T4, CrkL (full-length) (human, UniProt P46109 1-303); assay: fluorescence polarisation; fluorescein-labelled peptide at 0.2 µM titrated with CrkL or CrkL W160S; 20 mM Tris-HCl, 150 mM NaCl, pH 7.5, 0.1 mg/ml BSA; 1:1 binding model; apparent kd; conditions: both partners purified
# T4 construct: human CrkL, residues 1-303, in pETEV15b; also called Crk-like protein; source: E. coli BL21 (DE3), purified (IMAC, TEV digestion, SEC); not shown: His, N-terminal, cleaved
# [5] = molecular target: T5, CrkL-W160S (human, UniProt P46109 1-303, W160S); assay: as above; conditions: both partners purified
# T5 construct: human CrkL, residues 1-303, point mutant W160S, in pETEV15b; source: E. coli BL21 (DE3), purified (IMAC, TEV digestion, SEC); not shown: His, N-terminal, cleaved
# T5 sequence (P46109 whole entry W160S, the tested form may be a part): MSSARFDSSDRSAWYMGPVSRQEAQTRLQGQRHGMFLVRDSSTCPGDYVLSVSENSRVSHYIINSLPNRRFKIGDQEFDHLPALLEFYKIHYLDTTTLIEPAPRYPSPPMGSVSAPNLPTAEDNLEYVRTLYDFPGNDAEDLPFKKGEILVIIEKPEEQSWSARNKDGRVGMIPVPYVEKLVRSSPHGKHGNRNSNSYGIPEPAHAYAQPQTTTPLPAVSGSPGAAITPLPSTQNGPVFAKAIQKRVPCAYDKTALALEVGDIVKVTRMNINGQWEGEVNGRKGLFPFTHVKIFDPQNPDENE
# T4 sequence (P46109 whole entry, the tested form may be a part): as the sequence (P46109 whole entry W160S, the tested form may be a part) above, with S160W counted along it
Binder,Kd [1] [µM],AC50 of the dose-response activation of the GEF activity of pC3G (0.2 µM) on Rap1b:mant-dGDP [2] [µM],kmax of the dose-response activation of the GEF activity of pC3G (0.2 µM) on Rap1b:mant-dGDP [2] [s^-1 µM^-1],AC50 of the dose-response activation of the GEF activity of C3G (1 µM) on Rap1b:mant-dGDP [3] [µM],kmax of the dose-response activation of the GEF activity of C3G (1 µM) on Rap1b:mant-dGDP [3] [M⁻¹ s⁻¹],other results
B1,1.1,–,–,–,–,–
B2,–,4.5,0.0134,19.8,12900,–
B3,2.7,–,–,–,–,–
B4,–,2.6,0.0223,65.7,7200,–
B5,–,–,–,–,–,Kd [4]: 1.4 µM; Kd [5]: ~490 µM
